Measurements from patent US20050136462.

Columns and labels:
[1] = test system: Nb.BsaI N441D/R442G (A11) N441D/R442G; test: cleavage_in_vitro; details: bottom-strand nicking; estimated in cell extract
Nb.BsaI R442G R442G = test: cleavage_in_vitro; details: predominant nicking; about 8-fold lower than N441D/R442G

Sequence “GGTCTCNNNNN (double strand) [BsaI site (in supercoiled pUC19)]” has an activity (units/g wet cells) [1] of 800000 and an activity (units/g wet cells) (Nb.BsaI R442G R442G) of 100000.
